Biological target: the molecule itself
Test: size exclusion chromatography against protein standards (peaks at 80 kDa and 50 kDa; data not shown)

B1: Phytase chimera PTRec 77 (enzyme)
chain: SDTAPAGFQLERVVILSRHGVRAPTKMTQTMRDVTPHQWPEWPVKLGYITPRGEHLISLMGGFYRERFQQQGLLPKDNCPTPDAVYVWADVDQRTRLTGQAFLDGIAPGCGLKVHYQADLEKVDPLFHPVEAGVCQLDSTQTHRAIEAQLGAPLSELSQRYAKPFAQMSEILNFTASPYCKSLQQQGKSCDFATFAANEVKVNQQGTKVSLSGPLALSSTLGEVFLLQEAQGMPQVAWGRITGEKEWRDLLSLHNAQFDLLQRTPYLAKHNGTPLLQTIAHALGSNITSRPLPDISPDNKILFIAGHDTNIANISGMLGMTWTLPGQPDNTPPGGALVFERWVDNAGKPYVSVNMVYQTLAQLHDQAPLTLQHPAGSVRLNIPGCSDQTPDGYCPLSTFSRLVSHSVEPACQLP
modifications: N-linked glycans, heterogeneous (hypermannosylation), from secretion by Pichia pastoris; sites not stated
notes: Recombinant chimera of phytase fragments from Hafnia alvei, Yersinia mollaretii and Citrobacter braakii; It was secreted by P. pastoris and purified; also called DJ 11
B1: no binding.

— patent US20240158769A1 (RHEINISCH WESTF LISCHE TECHNISCHE HOCHSCHULE RWTH AACHEN, published 2024)
